What was measured:
[1] = biological target: T1, wild type plasma kallikrein catalytic domain (recombinant, Pichia pastoris) (human, UniProt P03952 391-638); test: enzyme inhibition assay: rate (F/s) of substrate peptide cleavage by PKal against [IgG] (nM), fitted to the Morrison equation; apparent Ki (Ki,app)
T1 construct: also called wild-type PKal
Procedure: (§1) Briefly, PKal and a Fab at various concentrations are incubated together for 1 hour at 30° C. A substrate peptide (cleavable by PKal) is then added to this PKal-Fab mixture. The rate of substrate peptide cleavage/proteolysis is then measured, and plotted against the concentrations of the Fab. This plot is then fit to the Morrison equation, which calculates the K_{i,app} value. The results thus obtained are shown in FIGS. 5A-5D and Table 3 below:
(§2) The inhibitory activity of X115-F02 against the wild-type PKal and the mutants were carried out using the method described in Example 3 above and the K_{i,app} values were determined.

[2] = biological target: T2, plasma kallikrein catalytic domain Mutant 2 (R551A, Q553A, Y555A, T558A, R560A) (human, UniProt P03952 391-638); test: as above
T2 construct: Expressed in Pichia pastoris
T2 sequence (P03952 391-638 R551A/Q553A/Y555A/T558A/R560A): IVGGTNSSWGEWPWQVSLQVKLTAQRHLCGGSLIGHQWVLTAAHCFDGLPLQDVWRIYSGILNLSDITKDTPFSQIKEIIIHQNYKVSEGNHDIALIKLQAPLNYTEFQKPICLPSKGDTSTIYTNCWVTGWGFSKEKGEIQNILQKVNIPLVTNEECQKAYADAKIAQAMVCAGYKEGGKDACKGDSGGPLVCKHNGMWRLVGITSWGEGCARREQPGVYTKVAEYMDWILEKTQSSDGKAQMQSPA
Procedure: as §1, §2

[3] = biological target: T3, plasma kallikrein catalytic domain Mutant 4 (N396A, S398A, W399A) (human, UniProt P03952 391-638); test: as above
T3 construct: Expressed in Pichia pastoris
T3 sequence (P03952 391-638 N396A/S398A/W399A): as the sequence (P03952 391-638 R551A/Q553A/Y555A/T558A/R560A) above, with N6A, S8A, W9A, A161R, A163Q, A165Y, A168T, A170R counted along it
Procedure: as §1, §2

[4] = biological target: T4, plasma kallikrein catalytic domain Mutant 1 (S478A, N481A, S506A, Y507A) (human, UniProt P03952 391-638); test: as above
T4 construct: Expressed in Pichia pastoris
T4 sequence (P03952 391-638 S478A/N481A/C503S/S506A/K507A limits assumed): as the sequence (P03952 391-638 R551A/Q553A/Y555A/T558A/R560A) above, with S88A, N91A, C113S, S116A, K117A, A161R, A163Q, A165Y, A168T, A170R counted along it
Procedure: as §1, §2

[5] = biological target: T2, plasma kallikrein catalytic domain …; test: Ki,app; IgG inhibition of PKal catalytic domain cleavage of a substrate peptide, Morrison fit
Procedure: as §1, §2

[6] = biological target: T5, human plasma kallikrein (PKal) (human, UniProt P03952 20-638); test: Ki,app; Fab inhibition of PKal cleavage of a substrate peptide, Morrison fit
T5 construct: Active PKal is cleaved at the marked R/I site into two disulfide-linked chains; also called human Pkal; active PKal
T5 sequence (P03952 20-638 limits assumed): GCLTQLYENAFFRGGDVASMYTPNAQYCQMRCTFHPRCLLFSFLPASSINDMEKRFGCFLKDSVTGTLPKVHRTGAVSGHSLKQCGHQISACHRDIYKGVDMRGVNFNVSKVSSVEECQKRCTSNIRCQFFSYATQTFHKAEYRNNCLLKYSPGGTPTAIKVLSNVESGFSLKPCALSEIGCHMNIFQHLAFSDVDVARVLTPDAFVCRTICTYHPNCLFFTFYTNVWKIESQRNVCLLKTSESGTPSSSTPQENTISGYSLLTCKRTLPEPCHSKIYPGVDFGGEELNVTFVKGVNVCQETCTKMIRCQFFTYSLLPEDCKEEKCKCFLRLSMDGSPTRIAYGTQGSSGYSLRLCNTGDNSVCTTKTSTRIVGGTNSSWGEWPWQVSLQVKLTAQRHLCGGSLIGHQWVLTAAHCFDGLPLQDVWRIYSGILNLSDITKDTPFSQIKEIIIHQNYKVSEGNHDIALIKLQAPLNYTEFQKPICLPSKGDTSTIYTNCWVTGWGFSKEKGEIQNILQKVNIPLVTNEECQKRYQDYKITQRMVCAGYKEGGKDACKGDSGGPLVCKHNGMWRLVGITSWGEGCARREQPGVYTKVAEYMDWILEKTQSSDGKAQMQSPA
Procedure: as §1, with “below: […]” for “below:”

[7] = biological target: T5, human plasma kallikrein (PKal); test: enzyme inhibition assay: rate (F/s) of substrate peptide cleavage by PKal against [Fab] (nM), fitted to the Morrison equation; apparent Ki (Ki,app); Table 3 prints it rounded, 14.7 nM
[8] = biological target: T5, human plasma kallikrein (PKal); test: enzyme inhibition assay: rate (F/s) of substrate peptide cleavage by PKal against [Fab] (nM), fitted to the Morrison equation; apparent Ki (Ki,app); Table 3 prints it rounded, 1405.6 nM
[9] = biological target: T5, human plasma kallikrein (PKal); test: enzyme inhibition assay: rate (F/s) of substrate peptide cleavage by PKal against [Fab] (nM), fitted to the Morrison equation; apparent Ki (Ki,app); Table 3 prints 0.33 nM
Procedure: as §1, with “below: […]” for “below:”

[10] = biological target: T5, human plasma kallikrein (PKal); test: enzyme inhibition assay: rate (F/s) of substrate peptide cleavage by PKal against [2930] (pM), fitted to the Morrison equation; apparent Ki (Ki,app); no unit stands beside the value, pM is the unit of the concentration axis; Table 3 prints 0.06 nM
Procedure: as §1, with “below: […]” for “below:”

[11] = biological target: T5, human plasma kallikrein (PKal); test: enzyme inhibition assay: rate (F/s) of substrate peptide cleavage by PKal against [Fab] (nM), fitted to the Morrison equation; apparent Ki (Ki,app); Table 3 prints 1.1 nM
Procedure: as §1, with “below: […]” for “below:”

[12] = biological target: T5, human plasma kallikrein (PKal); test: enzyme inhibition assay: rate (F/s) of substrate peptide cleavage by PKal against [Fab] (nM), fitted to the Morrison equation; apparent Ki (Ki,app); Table 3 prints it rounded, 2.2 nM
Procedure: as §1, with “below: […]” for “below:”

T1 sequence (P03952 391-638): as the sequence (P03952 391-638 R551A/Q553A/Y555A/T558A/R560A) above, with A161R, A163Q, A165Y, A168T, A170R counted along it

| Binder | Ki [6] [nM] | also measured |
| --- | --- | --- |
| X115-F02 (antibody, human IgG1, kappa, V domains shown, also called mutant X115-F02) VH: EVQLLESGGGLVQPGGSLRLSCAASGFTFSHYIMMWVRQAPGKGLEWVSGIYSSGGITVYADSVKGRFTISRDNSKNTLYLQMNSLRAEDTAVYYCAYRRIGVPRRDEFDIWGQGTMVTVSS VL: DIQMTQSPSTLSASVGDRVTITCRASQSISSWLAWYQQKPGKAPKLLIYKASTLESGVPSRFSGSGSGTEFTLTISSLQPDDFATYYCQQYNTYWTFGQGTKVEIKR | – | Ki [1]: 0.09 nM; Ki [2]: 5.9 nM; Ki [3]: 0.1 nM; Ki [4]: 0.14 nM; fold reduction of potency (Ki,app) against wild-type PKal [5]: ~65 fold |
| M0200-B01 (Fab, V domains shown) VH: EVQLLESGGGLVQPGGSLRLSCAASGFTFSHYIMMWVRQAPGKGLEWVSGIYSSGGITVYADSVKGRFTISRDNSKNTLYLQMNSLRAEDTAVYYCAYRRTGIPRRDAFDSWGQGTMVTVSS VL: DIQMTQSPSTLSASVGDRVTITCRASQSISSWLAWYQQKPGKAPNLLIYKASTLESGVPSRFSGSGSGTEFTLTISSLQPDDFATYYCQQYNTYWTFGQGTKVEIK | 3.6 | – |
| M0202-E03 (Fab, V domains shown) VH: EVQLLESGGGLVQPGGSLRLSCAASGFTFSHYIMMWVRQAPGKGLEWVSGIYSSGGITVYADSVKGRFTISRDNSKNTLYLQMNSLRAEDTAVYYCAYRRTGIPRRDAFEIWGQGTMVTVSS VL: DIQMTQSPSTLSASVGDRVTITCRASQSISSWLAWYQQKPGKAPNLLIYKASTLESGVPSRFSGSGSGTEFTLTISSLQPDDFATYYCQQYNTYWTFGQGTKVEIK | 2 | – |
| X133-F10 (Fab, V domains shown) VH: EVQLLESGGGLVQPGGSLRLSCAASGFTFSHYIMMWVRQAPGKGLEWVSGIYSSGGITVYADSVKGRFTISRDNSKNTLYLQMNSLRAEDTAVYYCAYRRTGLPRRDAFDIWGQGTMVTVSS VL: DIQMTQSPSTLSASVGDRVTITCRASQSISSWLAWYQQKPGKAPNLLIYKASTLESGVPSRFSGSGSGTEFTLTISSLQPDDFATYYCQQYNTYWTFGQGTKVEIK | 14.7 | Ki [7]: 14.7 nM |
| M0201-F11 (Fab, V domains shown) VH: EVQLLESGGGLVQPGGSLRLSCAASGFTFSHYIMMWVRQAPGKGLEWVSGIYSSGGITVYADSVKGRFTISRDNSKNTLYLQMNSLRAEDTAVYYCAYRRSGIPRRDAFDIWGQGTMVTVSS VL: DIQMTQSPSTLSASVGDRVTITCRASQSISSWLAWYQQKPGKAPNLLIYKASTLESGVPSRFSGSGSGTEFTLTISSLQPDDFATYYCQQYNTYWTFGQGTKVEIK | 3 | – |
| X133-G05 (Fab, V domains shown) VH: EVQLLESGGGLVQPGGSLRLSCAASGFTFSHYIMMWVRQAPGKGLEWVSGIYSSGGITVYADSVKGRFTISRDNSKNTLYLQMNSLRAEDTAVYYCAYRRTGSPRRDAFDIWGQGTMVTVSS VL: DIQMTQSPSTLSASVGDRVTITCRASQSISSWLAWYQQKPGKAPNLLIYKASTLESGVPSRFSGSGSGTEFTLTISSLQPDDFATYYCQQYNTYWTFGQGTKVEIK | 1410 | Ki [8]: 1410 nM |
| M0202-A08 (Fab, V domains shown) VH: EVQLLESGGGLVQPGGSLRLSCAASGFTFSHYIMMWVRQAPGKGLEWVSGIYSSGGITVYADSVKGRFTISRDNSKNTLYLQMNSLRAEDTAVYYCAYRRTGIPRWDAFDIWGQGTMVTVSS VL: DIQMTQSPSTLSASVGDRVTITCRASQSISSWLAWYQQKPGKAPNLLIYKASTLESGVPSRFSGSGSGTEFTLTISSLQPDDFATYYCQQYNTYWTFGQGTKVEIK | 2.8 | – |
| M0199-B01 (Fab, V domains shown) VH: EVQLLESGGGLVQPGGSLRLSCAASGFTFSHYIMMWVRQAPGKGLEWVSGIYSSGGITVYADSVKGRFTISRDNSKNTLYLQMNSLRAEDTAVYYCAYRRTGIPRRDAFDNWGQGTMVTVSS VL: DIQMTQSPSTLSASVGDRVTITCRASQSISSWLAWYQQKPGKAPNLLIYKASTLESGVPSRFSGSGSGTEFTLTISSLQPDDFATYYCQQYNTYWTFGQGTKVEIK | 1.6 | – |
| X133-D06 (Fab, V domains shown, HC CDR3 variant of M0162-A04, tested as Fab) VH: EVQLLESGGGLVQPGGSLRLSCAASGFTFSHYIMMWVRQAPGKGLEWVSGIYSSGGITVYADSVKGRFTISRDNSKNTLYLQMNSLRAEDTAVYYCAYRRIGIPRRDEFDIWGQGTMVTVSS VL: DIQMTQSPSTLSASVGDRVTITCRASQSISSWLAWYQQKPGKAPNLLIYKASTLESGVPSRFSGSGSGTEFTLTISSLQPDDFATYYCQQYNTYWTFGQGTKVEIK | 0.33 | Ki [9]: 0.301 nM |
| M0199-A08 (Fab, V domains shown, also called M199-A08) VH: EVQLLESGGGLVQPGGSLRLSCAASGFTFSHYIMMWVRQAPGKGLEWVSGIYSSGGITVYADSVKGRFTISRDNSKNTLYLQMNSLRAEDTAVYYCAYRRIGVPRRDEFDIWGQGTMVTVSS VL: DIQMTQSPSTLSASVGDRVTITCRASQSISSWLAWYQQKPGKAPNLLIYKASTLESGVPSRFSGSGSGTEFTLTISSLQPDDFATYYCQQYNTYWTFGQGTKVEIK | 0.06 | Ki [10]: 0.099 nM |
| X135-A03 (Fab, V domains shown, HC CDR3 variant of M0162-A04, tested as Fab) VH: EVQLLESGGGLVQPGGSLRLSCAASGFTFSHYIMMWVRQAPGKGLEWVSGIYSSGGITVYADSVKGRFTISRDNSKNTLYLQMNSLRAEDTAVYYCAYRRTGIPRRDEFDIWGQGTMVTVSS VL: DIQMTQSPSTLSASVGDRVTITCRASQSISSWLAWYQQKPGKAPNLLIYKASTLESGVPSRFSGSGSGTEFTLTISSLQPDDFATYYCQQYNTYWTFGQGTKVEIK | 1.1 | Ki [11]: 1.25 nM |
| X133-B02 (Fab, V domains shown, HC CDR3 variant of M0162-A04, tested as Fab) VH: EVQLLESGGGLVQPGGSLRLSCAASGFTFSHYIMMWVRQAPGKGLEWVSGIYSSGGITVYADSVKGRFTISRDNSKNTLYLQMNSLRAEDTAVYYCAYRRIGIPRRDAFDIWGQGTMVTVSS VL: DIQMTQSPSTLSASVGDRVTITCRASQSISSWLAWYQQKPGKAPNLLIYKASTLESGVPSRFSGSGSGTEFTLTISSLQPDDFATYYCQQYNTYWTFGQGTKVEIK | 2.2 | Ki [12]: 2.22 nM |

From patent US20150274841A1 (DYAX, published 2015)
